Measurements reported in patent EP3529371B1.
Read-outs that look alike come from different tables or passages of the source.

B1: BoNT/F1 (recombinant, activated full-length) (enzyme)
chain: MPVVINSFNYNDPVNDDTILYMQIPYEEKSKKYYKAFEIMRNVWIIPERNTIGTDPSDFDPPASLENGSSAYYDPNYLTTDAEKDRYLKTTIKLFKRINSNPAGEVLLQEISYAKPYLGNEHTPINEFHPVTRTTSVNIKSSTNVKSSIILNLLVLGAGPDIFENSSYPVRKLMDSGGVYDPSNDGFGSINIVTFSPEYEYTFNDISGGYNSSTESFIADPAISLAHELIHALHGLYGARGVTYKETIKVKQAPLMIAEKPIRLEEFLTFGGQDLNIITSAMKEKIYNNLLANYEKIATRLSRVNSAPPEYDINEYKDYFQWKYGLDKNADGSYTVNENKFNEIYKKLYSFTEIDLANKFKVKCRNTYFIKYGFLKVPNLLDDDIYTVSEGFNIGNLAVNNRGQNIKLNPKIIDSIPDKGLVEKIVKFCKSVIPRKGTKAPPRLCIRVNNRELFFVASESSYNENDINTPKEIDDTTNLNNNYRNNLDEVILDYNSETIPQISNQTLNTLVQDDSYVPRYDSNGTSEIEEHNVVDLNVFFYLHAQKVPEGETNISLTSSIDTALSEESQVYTFFSSEFINTINKPVHAALFISWINQVIRDFTTEATQKSTFDKIADISLVVPYVGLALNIGNEVQKENFKEAFELLGAGILLEFVPELLIPTILVFTIKSFIGSSENKNKIIKAINNSLMERETKWKEIYSWIVSNWLTRINTQFNKRKEQMYQALQNQVDAIKTVIEYKYNNYTSDERNRLESEYNINNIREELNKKVSLAMENIERFITESSIFYLMKLINEAKVSKLREYDEGVKEYLLDYISEHRSILGNSVQELNDLVTSTLNNSIPFELSSYTNDKILILYFNKLYKKIKDNSILDMRYENNKFIDISGYGSNISINGDVYIYSTNRNQFGIYSSKPSEVNIAQNNDIIYNGRYQNFSISFWVRIPKYFNKVNLNNEYTIIDCIRNNNSGWKISLNYNKIIWTLQDTAGNNQKLVFNYTQMISISDYINKWIFVTITNNRLGNSRIYINGNLIDEKSISNLGDIHVSDNILFKIVGCNDTRYVGIRYFKVFDTELGKTEIETLYSDEPDPSILKDFWGNYLLYNKRYYLLNLLRTDKSITQNSNFLNINQQRGVYQKPNIFSNTRLYTGVEVIIRKNGSTDISNTDNFVRKNDLAYINVVDRDVEYRLYADISIAKPEKIIKLIRTSNSNNSLGQIIVMDSIGNNCTMNFQNNNGGNIGLLGFHSNNLVASSWYYNNIRKNTSSNGCFWSFISKEHGWQEN

Legend:
Test in all cases: cell-based or functional assay
[1] = molecular target: H6tHAtev1S(146-206)LS D179KN196QQ197NR198K (Photinus pyralis) (UniProt P60877)
[2] = molecular target: H6tHA1S(146-206)-NL-S (Macaca mulatta (Rhesus macaque)) (UniProt P60877)
[3] = molecular target: H6tHAtev1S(146-206)LS D179KA199R (Photinus pyralis) (UniProt P60877)
[4] = molecular target: H6tHA1S(146-206)-sfGFP-S (Macaca mulatta (Rhesus macaque)) (UniProt P60877)
[5] = molecular target: H6tHA1V(2-94)-sfGFP-S (Bos taurus (Bovine)) (UniProt P63026)
[6] = molecular target: H6tHAtev1S(140-197)L (Photinus pyralis) (UniProt P60877)
[7] = molecular target: H6tHAtev1V(60-94)L (Photinus pyralis)
[8] = molecular target: H6tHA1V(2-94)-sfGFP-S (Bos taurus (Bovine)) (UniProt P63026); remark: listed apart in the source

UniProt P63026, sequence (P63026 2-94): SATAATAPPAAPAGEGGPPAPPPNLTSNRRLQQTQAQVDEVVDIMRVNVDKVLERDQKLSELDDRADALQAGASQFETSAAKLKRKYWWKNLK

Molecule | EC50 of substrate cleavage, endopeptidase assay, JDZ-buffer, 1 h 37°C [1] [nM] | EC50 of cleavage of generic substrate with reporter NL, JDZ-buffer, 1 h 37°C [2] [nM] | EC50 of substrate cleavage, endopeptidase assay, JDZ-buffer, 1 h 37°C [3] [nM] | EC50 of cleavage of generic substrate with reporter sfGFP, JDZ-buffer, 1 h 37°C [4] [nM] | EC50 of cleavage of generic substrate with reporter sfGFP, JDZ-buffer, 1 h 37°C [5] [nM] | further results
BoNT/C (recombinant, activated full-length) (from UniProt P18640 2-1291) (enzyme) | 0.6 | 10 | 200 | 20 | – | fold decrease of EC50 relative to generic H6tHAtev1S(146-206)LS [1]: 16 fold
BoNT/D (recombinant, activated full-length) (from UniProt P19321 2-1276) (enzyme) | – | – | – | – | 1 | –
BoNT/E1 (recombinant, activated full-length) (from UniProt Q00496 2-1251) (enzyme) | 1000 | 0.2 | 1000 | 0.1 | – | EC50 of substrate cleavage, endopeptidase assay, JDZ-buffer, 1 h 37°C [6]: 0.2 nM
BoNT/A1 (recombinant, activated full-length) (from UniProt P0DPI1 2-1296) (enzyme) | – | 0.01 | 0.4 | 0.03 | – | –
BoNT/B1 (recombinant, activated full-length) (from UniProt B1INP5 2-1291) (enzyme) | – | – | – | – | 0.02 | EC50 of substrate cleavage, endopeptidase assay, JDZ-buffer, 1 h 37°C [7]: 0.6 nM; fold increase of EC50 relative to generic H6tHAtev1V(2-94)LS [7]: 10 fold
B1 | – | – | – | – | – | EC50 of cleavage of generic substrate with reporter sfGFP, JDZ-buffer, 1 h 37°C [8]: 0.06 nM
